Assay [1] addresses GST‐tagged Ghd7 (Grain number, plant height and heading‐date7) (rice (Oryza sativa)) (UniProt E5RQA1). The experiment in a line: pull-down.
Assay [2] addresses T1, GST‐tagged Ghd7 (Grain number, plant height and heading‐date7) (rice (Oryza sativa), UniProt E5RQA1 1-257).
T1 sequence (looked up): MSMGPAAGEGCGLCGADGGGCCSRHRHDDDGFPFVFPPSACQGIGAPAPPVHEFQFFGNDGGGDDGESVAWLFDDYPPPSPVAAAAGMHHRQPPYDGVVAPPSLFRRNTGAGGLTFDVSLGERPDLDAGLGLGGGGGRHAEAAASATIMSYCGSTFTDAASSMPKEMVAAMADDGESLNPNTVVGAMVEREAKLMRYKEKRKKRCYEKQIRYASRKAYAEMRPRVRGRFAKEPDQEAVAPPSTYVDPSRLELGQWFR
Description: pull-down.

“MBP‐tagged Hd1 (Heading date 1) (from UniProt Q9FDX8 1-395) (natural protein)” returned a stoichiometry N in assay [1] of 1.

B1: MBP‐tagged DTH8 (Days‐to‐heading on chromosome 8) (natural protein, rice (Oryza sativa), UniProt Q0J7P4 1-297, looked up)
chain: MKSRKSYGHLLSPVGSPPLDNESGEAAAAAAAGGGGCGSSAGYVVYGGGGGGDSPAKEQDRFLPIANVSRIMKRSLPANAKISKESKETVQECVSEFISFVTGEASDKCQREKRKTINGDDLLWAMTTLGFEAYVGPLKSYLNRYREAEGEKADVLGGAGGAAAARHGEGGCCGGGGGGADGVVIDGHYPLAGGLSHSHHGHQQQDGGGDVGLMMGGGDAGVGYNAGAGSTTTAFYAPAATAASGNKAYCGGDGSRVMEFEGIGGEEESGGGGGGGERGFAGHLHGVQWFRLKRNTN
For the molecule B1, in assay [2], the “stoichiometry N” value came to 1.

By stoichiometry N is commonly meant the number of molecules, sites or subunits per partner or assembly.

For the origin of these results see PMC7821112 (The New Phytologist, 2020).
